In patent US20200054764A1, “MEDICAL USE OF ANTI-C MET ANTIBODY-CYTOTOXIC DRUG CONJUGATE” (priority 2016, published 2020):

Molecular target: T1, c-Met antigen Sema-His (Homo sapiens, UniProt P08581)
T1 construct: Flag (C); His tag (6xHis) (C); made in house; host or cells: 293F cells (Invitrogen, Cat # R790-07); vector pEE6.4; c-Met gene template origene RC217003
Experiment: SPR (BIACore) affinity to c-Met antigen
Format: binding
Details: 1:1 Langmuir model
Description: The affinity of c-Met antibody to c-Met antigen Sema-His was detected by surface plasmon resonance (SPR) in the invention.
Anti-mouse IgG (GE Life Sciences catalog # BR-1008-38) or anti-human IgG (GE Life Sciences catalog # BR-1008-39) antibodies were respectively diluted to 30 μg/mL and 50 μg/mL by sodium acetate solution pH 5.0 (GE Healthcare, Cat # BR-1003-51). An amino coupling kit (GE Life Sciences, Cat # BR100050) […] the test channels and control channels on a CM5 chip (GE Life Sciences catalog # BR-1000-12), and the coupling level was set at 15000 RU. The c-Met antibody was diluted with Running buffer PBS (Hyclone, Cat # SH30256.01B)+0.05% P20 (GE Life Sciences, Cat # BR-1000-54) to 1.5 μg/mL. Antigen Sema-His was diluted to 200 nM with running buffer, and then diluted at a 1:2 dilution with the same buffer until 0.78 nM was reached. The diluted antibody passed through the test channel for 1 minute at a speed of 30 μL/min, and the antigen passed through the test channels and control channels for 3 minutes at the same speed. 10 minutes after dissociation, the flow speed was adjusted to 10 μL/min, and regeneration buffer was passed through test channels and control channels for 3 minutes. Data was fitted by BiaEvaluation 4.1 after double deduction, and the fitting model was a 1:1 Langmuir model.

T1 sequence (P08581 with tags, fused parts or gaps limits assumed): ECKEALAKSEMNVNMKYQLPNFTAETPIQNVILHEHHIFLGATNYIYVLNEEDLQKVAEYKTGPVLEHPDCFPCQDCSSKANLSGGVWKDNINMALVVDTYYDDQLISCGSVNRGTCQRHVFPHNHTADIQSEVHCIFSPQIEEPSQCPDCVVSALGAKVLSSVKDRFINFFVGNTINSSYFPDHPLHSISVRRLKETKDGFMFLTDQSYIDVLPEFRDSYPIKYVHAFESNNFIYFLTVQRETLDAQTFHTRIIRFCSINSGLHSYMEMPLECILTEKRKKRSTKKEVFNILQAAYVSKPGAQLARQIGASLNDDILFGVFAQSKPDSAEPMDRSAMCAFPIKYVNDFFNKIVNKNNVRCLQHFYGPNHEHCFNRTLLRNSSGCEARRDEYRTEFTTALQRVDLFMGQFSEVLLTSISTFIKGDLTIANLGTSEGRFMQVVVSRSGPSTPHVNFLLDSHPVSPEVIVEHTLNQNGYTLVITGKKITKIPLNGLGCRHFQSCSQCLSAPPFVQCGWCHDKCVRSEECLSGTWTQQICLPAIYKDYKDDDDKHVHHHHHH

B1: Ab-9 (antibody)
heavy: QVTLKESGPVLVKPTETLTLTCTVSGFSLPNYGVHWVRQPPGKALEWLAVIWSGGSTNYAAAFVSRLRISKDTSKSQVVFTMNNMDPVDTATYYCARNHDNPYNYAMDYWGQGTTVTVSSASTKGPSVFPLAPCSRSTSESTAALGCLVKDYFPEPVTVSWNSGALTSGVHTFPAVLQSSGLYSLSSVVTVPSSNFGTQTYTCNVDHKPSNTKVDKTVERKCCVECPPCPAPPVAGPSVFLFPPKPKDTLMISRTPEVTCVVVDVSHEDPEVQFNWYVDGVEVHNAKTKPREEQFNSTFRVVSVLTVVHQDWLNGKEYKCKVSNKGLPAPIEKTISKTKGQPREPQVYTLPPSREEMTKNQVSLTCLVKGFYPSDIAVEWESNGQPENNYKTTPPMLDSDGSFFLYSKLTVDKSRWQQGNVFSCSVMHEALHNHYTQKSLSLSPGK
light: DIVLTQSPASLAVSPGQRATITCRANKSVSTSTYNYLHWYQQKPGQPPKLLIYLASNLASGVPARFSGSGSGTDFTLTINPVEANDTANYYCQHSRDLPPTFGQGTKLEIKRTVAAPSVFIFPPSDEQLKSGTASVVCLLNNFYPREAKVQWKVDNALQSGNSQESVTEQDSKDSTYSLSSTLTLSKADYEKHKVYACEVTHQGLSSPVTKSFNRGEC
Kd: 4 nM
